Data from publication PMC7395514.

Biological target: Celsr3 (UniProt Q91ZI0)
Assay: co-immunoprecipitation, both in same cell
Conditions: reference: Fzd3 wild type; sites T598

In the case of “Frizzled3 (Fzd3) (from UniProt Q61086) Fzd3 T598A”, the “binding against the reference” value is reported as “weaker”.
